EC50 data for 1 substance are collected here from patent publication US20220265806A1.

In the test the target is E1′ (CHIKV E1 ectodomain construct) (Chikungunya virus).

In the case of chCHK-166^pMAZ (antibody), the concentration for a half-maximal effect (EC50) – broadly, the concentration giving half of the maximal effect – is 2.2 nM.
